Source: a protein production outcome set (Wang et al. 2014)

Test: label from the status in PepcDB records

Sequence	protein production
MEYNVQDMIFQFIGGLGIFLFGIKYMGDGLQQAAGDRLRDILDRFTTNPLMGVLAGMLVTVLIQSSSGTTALTVGLVSAGFMTLRQAIGVIMGANIGTTVTAFIIGIKIGEYALPVMAVGAILLFFFKNKKVHSVGQVVFGFGMLFFGLELMSAGMKPLRSLESFQELTVSMSDNPILGIVVGTVFTLIVQSSSATIGILQELFGQGAIDLQAALPVLFGDNIGTTITAVLAAIGTSIAARRAALVHVIFNIIGTIIFTILLIPFTSLIQYFQTSLNLNPEMTIAFAHGTFNVTNTIIQFPFIAVLAWIVTKIIRGEDAAIDFKPQHLNPIFIEQSPAIALTEAQKEIIRMAEFSLHGLKEANQFLNTQDKKHANMATQLEGAINNLDKKITEYLVLLSEKPLSPTDSEKHSVLAGVVGDIERVGDHVENLVELVDFQISNRVSLSDEALAELNEMLELTISTLQDSVEALTNFDTELAQTVIAKERKIDQMERVLRKRHVLRLNERSCSGDASIIFVDMVSNLERIGDHAVNIADGVLGEQGKINLKQSL	failed
MTTTASQEAFLQAFHAEYPAVTAEAFGRGHAPDGRSSYEILCDRVAGSMRVLDLGCGDGLLLEFLARRSGRQLAGVDLSPHSLALARRRPALSEAKLEEGRAQELPFADDSFDACVSHMALMLMSEIEQVASEVARVLSPGGVLACVVGGGAVGGEAYERFLALLRCTIEETPASQRIPALGDKRTRSREGLDEVLGPAGFTAVDWETVPIDLSAPGEQVWAAVSSLYDLGPLDRATLDRLREAFFAEVRDMTTSEGHVPCAFKIHLATARLR	failed
MLNALKNRLRVWYDPEMKAIARIIREMNSKGGDDLVVTECNKVFVDRLRVFPIALKMDFWEHHFELEGFSDFPEIGGDILDFGCGSGHLDVYLARRGFTVTGVDLSPVGIAIASFIRENEAADVKKRLLFFVADVTADLPPRQFDAAWSAHVFEHIKNPGPVLAGLKNWIKPGGSLLISVPFGRAYDDPGHVNHFYSEADLQHYLGGHISVERIKIYRDHQVIRALCKNDGDGKNDR	failed
MQEKPAATGKADESAASKELLKLLRKAVAAVSGEDGWASLSNLGSHISKIRPSFDSRNYGYSKLSTLVKNLDIFETRMVPSADKLHTDVFLRLKDGKLEHHHHHH	failed
MGNAGESKKSNSDSAKGEEKASGSLTISGSSAMQPLVLAAAEKFMEENPDADIQVQAGGSGTGLSQVSEGAVQIGNSDVFAEEKEGIDAKALVDHQVAVVGMAAAVNPDAGVKDISKDELKKIFTGKIKNWKELGGKDQKITLVNRPDSSGTRATFVKYALDGAEPAEGITEDSSNTVKKIIADTPGAIGYLAFSYLTDDKVTALSIDGVKPEAKNVATGEYPIWAYQHSYTKGEATGLAKEFLDYLKSEDIQKSIVTDQGYIPVTDMKVTRDANGKQSLEHHHHHH	failed
MTAMSPEQSRAIAKKLAFWATLACLLAVVVIMLGAWTRLVHAGLGCPDWPGCYGFLTVPQDETRIAIANARFPETPVDVSKGWPEMIHRYAAGTLGLLVFGLAIASVRKRRAGLPVKLPLFIAGFIVLQAAFGMWTVTLKLWPQVVALHLLGGFTTLSLLLLLTLRLRRRARESEAPRPAMAASLARLRPWLYGGLLLVIAQIALGAWTAANYAAVACTDLPTCQGQWWPEGMDFQHGFDITQHVGPNYLGGQLTSDGRVAIHVSHRLGAVLVLGYLAILLGLLWRQRAQSGLDRAIALVGGALVLQFCLGLTNVWLHIPLIIAVAHNAMGAGLLLSMVHLIWRHHQLALPALSPAPHTTTINREVTA	failed
MAASSACLVGNGLSVNTTTKQRLSKHFSGRQTSFSSVIRTSKVNVVKASLDGKKKQEGRRDFLKILLGNAGVGLVASGKANADEQGVSSSRMSYSRFLEYLDKDRVNKVDLYENGTIAIVEAVSPELGNRVERVRVQLPGLSQELLQKLRAKNIDFAAHNAQEDQGSVLFNLIGNLAFPALLIGGLFLLSRRSGGGMGGPGGPGNPLQFGQSKAKFQMEPNTGVTFDDVAGVDEAKQDFMEVVEFLKKPERFTAVGAKIPKGVLLIGPPGTGKTLLAKAIAGEAGVPFFSISGSEFVEMFVGVGASRVRDLFKKAKENAPCIVFVDEIDAVGRQRGTGIGGGNDEREQTLNQLLTEMDGFEGNTGVIVVAATNRADILDSALLRPGRFDRQVSVDVPDVKGRTDILKVHAGNKKFDNDVSLEIIAMRTPGFSGADLANLLNEAAILAGRRARTSISSKEIDDSIDRIVAGMEGTVMTDGKSKSLVAYHEVGHAVCGTLTPGHDAVQKVTLIPRGQARGLTWFIPSDDPTLISKQQLFARIVGGLGGRAAEEIIFGDSEVTTGAVGDLQQITGLARQMVTTFGMSDIGPWSLMDSSAQSDVIMRMMARNSMSEKLAEDIDSAVKKLSDSAYEIALSHIKNNREAMDKLVEVLLEKETIGGDEFRAILSEFTEIPPENRVPSSTTTTPASAPTPAAV	not failed
DRTEERHAKGLRRQVDHRFDKLVGTISEGVLLMDDTGVFRDGNEAAQNILGRSLDEIIGSRFDDDIWNGLREDGSPLPNVEFPFWRAYVEREPVQEEVMGVYPPDAPPRWIRVNAQPLFRSGQEAPYAVLV	not failed
MNRSANTNAVLLLLLCAFFWGASFPVGKHALGEVHALTLVIWRFAIAAACLFAFIKWKRIPIPELKAKQWLWVVGVSIVGVGGLNLGLFTGLAQTNASNGALIMALSPLTTSLIGSLLQRKLLTRGAVFSLVVCLSGVLLVLTNGELKRLLSFEFNHGDQIIFLGMLCWSLYTYLTQGISRWMPMIPYTFIGMLAGLGVISVVAAFSAEAHPVQESLAISQIVLADLLFIGVFGTVGGYLLWISGVKQLGAANASLFFNFVPIFAALTAVTFGQNVASLQLLGMAIVISGLLLPRLTHWRQQRFARMG	failed
MFKGTNNASDFTLMSFSDRQAKNHEPRLKARRRGCLIVLADRIIDALYHPAGPCQGADKARQSAIQHFRLDVPEGQCHRLRHLLDMRPAMTQTQPAPACSLPCSILLLAGGRGSRMGGQDKGLVAWRGQPLIAHVQAVVRPLSDDLIISCNRNAERYRAYADRLVEDGQKDFPGPLAGVLAGLATARHPWLLVLACDAPQIDAALIQALLDARGNDTRPVMVQQAGQWQPMFSLIPTALLGDLRQAWDNGERSLLRALAAHGLRPLPCAADDPRLSNFNTPELLSEAGPKPLA	failed
MKPVAPRSFFAMDFLEFITAWEGKWLSQRTNYSFEQNEAGNAKSDVTVQRWDSQTELGRSLLERAGLKNQGELILLQLSWDNSVDWGKSKQKGTIYYGFLPDADHGDRGQLWRGTTNSNLAFLRGDYHLGSDECLTLNLGDGETSLTERHWYASPNLRLRTSLIQQGEGYSHSAFYSDIRRLPPAE	failed
MSITRRVRLSVDTCCYEAEIAGILRPQLLKGRMSVREEFDAWAAEGKDRGMEDRHWHTAKHVLARMPVEPGDTVLDLGTGSGYALRALRDTNDAGPCYGLDGSPEMLRNAREYTDDDGIGFLRGDFDALPFATDSIDHVFSMEAFYYASDPPHTLEEIARVLRPGGTANIAVNYYEENVHSHEWQEFIDIEMTRWSADEYREAFREAGLAVAAQDTIPDREVEIPPADTFPTDEFETREAMVERYRELGTLLTVGVATE	failed
MTHCADNGAPLAARQSAARARMSLPVDSPDAATAADSLPPAPAPRPRAPASLVVLATLAVGYTLWAAQTIILPIMLAAFFALIGNPILRGLRKLYIPRFLGALLILCLGLAGTVTLAAQLAGPAAEWVQQAPRQMRQIARDVRDLTKPVMQANQAAENFARAAGGEGQRGVQIVRTQMDDPYKALVRTPKLAASVLAVVLLTFFFMVYGESLQRHAIALLPNRQQQRFTTEIMLDIEREVSRYVLTISVINTLVGLVFAGILYVLQIPLPEAILWGTVVALLNFAPYVGPLIGVMLMLLMGFVEFRTTLSSLLPAILYLALHTIEGQVVTPIVLGRRMAISPLMLILALMLFGWLWGMVGLLLAVPLLVCIKMVLSRVDGMQRWARLLE	failed
MPVKLATALSNNLFPALDSQLRAGRHIGIEELENHVFLMDFQEVLEEFYSRYNVELIRAPEGFFYLRPRSTTLIPRSVLSELDMMVGKILCYLYLSPERLAHEGIFSQQELYEELLSLADESKLLKLVNQRSTGSDLDRQKLQEKVRTSLNRLRRLGMIYFMGNDSSKFRITESVFRFGADVRSGDDAREAQLRMIRDGEAMPVEGSLSLKDDSDDNDRTDDTAPETGEDELEHHHHHH	failed
MFAFPRLRFVLVGTQHPGNIGAAARAMKTMGISRLVLVAPECQLDEHAYRRSAGAEDVLEAASVHTVLADAVADCTFVLGCTARTRRVAFEELRPAAAASQILTNINAAGEVALLFGRERTGLTNEELQLCHVAVHIPADPLFSSLNLAAAVQILAYEIRLASLDAPSAPLHSTSGFRKTPASHAQLEGLFGQFKQTLDEIDFHKGRAPESAMRKLRRLFAKAELTQQEIRLLRGVLSDVQRIVMLKRQRDT	failed
MTTFTGHLTDAQAQRLVDGTLLEAEADEVLAHAGDCAECQALTESYRVLGDALGEALGALEVPELPRDFTAGVLSRIDARERAVRRERRFAAAILAAVLVAIGVTVVVAGAGTWAPAASRLAGGLGSAGEVLRLGAGLAGTLLSALRFPLALACTALAVPLLFALSRLIPSARAELA	failed
MNEVKAVWIRQWFPGLYQFKDYQRGWLTDDVRAAFSVVAVALPVAIAYAQLTGVPAIVGLYSCVLPMLVYALMGTSRQLIVGPDAATCAVIAAVVTPLAAGDTTKHWQLVMTMTAMTGFWCILASRLKLGIFADFLSRPILLGLLNGVALTIIVGQFAKVLGLKYEKRYLLERIVEAPELLYSLHWQTLGLSALTLAIYLVIKRWQPRWPAAMFAIMVAALLVWALNLESVGVQVVGVIQGGLPEFQAPAFDLGISRELVMPALNLAMVSFVSMMLTARSFAAKNGYDIDADKEFRALGVANVAAAFSQGFAISGADSRTAVNDANGGKSQLVSVIAALFIALVAVFAYQPLQFIPVAALGVVLIIASLSLLDLKGVWNLRKRDKDAFYLALITFIAVLVIGVIPGITLAVLLGLFQFLKLVMRPTDQMMGLDEEGTLRTLDGSEKAKPIPGMVIFRFNSPLTYFNAPYFKRRILDQTEREGAQVGCVIIDAVASFTHLDLSVMAMLADLHGILKKRGIRLILAGRKRSLRHWCDLTGINTAEGGIVLRADMYLAIKLSGCYLSAMEEGHVPVVQKEPDISVLLKPTTTEVA	failed
LTEAVSLMEANIEEPLSTDDIAYYVGVSRRQLERLFKQYLGTVPSKYYLELRLNRARQLLQQTSKSIVQIGLACGFSSGPHFSSTYRNHFNITPREERAQ	not failed
YLSPMAHWLMPVAGGPNIEKMLNLLPALFSLYPEENNPQLLISKVYLPRQSQRYDPFYDLKNLAERWSEQLQRPIIPIPVCSTSIADALSDLAEMRECAAIVLGASREGLLKNVIHGNLPTQIASQTNTTVFIFRGPVDSPNEEAIVPPLAPDFGLDE	failed
MVADESITVTVEVKNTGVVAGAEVVQLYLHDKKASVSRPIKELKGFAKVYLAPGESKRVSISLNKRDLSFWDVHTNDWLAEVGEFEVLLGTSLDNIRQKATFTYQNKYEQLEHHHHHH	failed
MDTWKVGPVELKSRLILGSGKYEDFGVMREAIAAAKAEVVTVSVRRVELKAPGHVGLLEALEGVRLLPNTAGARTAEEAVRLARLGRLLTGERWVKLEVIPDPTYLLPDPLETLKAAERLIEEDFLVLPYMGPDLVLAKRLAALGTATVMPLAAPIGSGWGVRTRALLELFAREKASLPPVVVDAGLGLPSHAAEVMELGLDAVLVNTAIAEAQDPPAMAEAFRLAVEAGRKAYLAGPMRPREAASPSSPVEGVPFTPTGPRPGRGPQ	not failed
